In US20210024646A1 (FUDAN UNIVERSITY, published 2021):
Changes are numbered by the printed parent chain. Values joined by “and” are separate entries in the source; they are usually repeats but may differ in a detail not shown here. Identical values can stand only once.

T1: extracellular domain of human CD73 protein (CD73-ECD), C-terminus polyhistidine-tagged (human, UniProt P21589 27-547)
T1 construct: also called Human CD73-ECD; human recombinant CD73 enzyme (CD73 extracellular domain)
T1 sequence: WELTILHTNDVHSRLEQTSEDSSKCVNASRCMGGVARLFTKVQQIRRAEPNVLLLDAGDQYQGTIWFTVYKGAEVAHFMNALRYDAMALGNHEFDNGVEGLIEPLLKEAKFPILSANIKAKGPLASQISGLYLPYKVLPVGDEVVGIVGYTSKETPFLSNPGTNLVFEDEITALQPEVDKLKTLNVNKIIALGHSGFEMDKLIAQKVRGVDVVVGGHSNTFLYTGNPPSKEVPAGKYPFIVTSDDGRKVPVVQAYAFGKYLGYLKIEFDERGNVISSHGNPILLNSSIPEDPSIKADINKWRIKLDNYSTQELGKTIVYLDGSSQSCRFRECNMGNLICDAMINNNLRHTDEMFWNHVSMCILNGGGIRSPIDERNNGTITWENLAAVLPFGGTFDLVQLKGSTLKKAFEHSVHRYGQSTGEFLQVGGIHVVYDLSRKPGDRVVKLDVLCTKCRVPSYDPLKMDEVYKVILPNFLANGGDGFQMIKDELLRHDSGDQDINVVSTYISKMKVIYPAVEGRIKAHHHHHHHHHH

T2: CD73 on the surface of human tumor cells (human, UniProt P21589 27-549)
T2 construct: whole, on cells; One entry for endogenous CD73 on all cell lines; the cell line is named under assay or readout; also called CD73 receptors on the surface of tumor cells; tumor cell CD73
T2 sequence (looked up): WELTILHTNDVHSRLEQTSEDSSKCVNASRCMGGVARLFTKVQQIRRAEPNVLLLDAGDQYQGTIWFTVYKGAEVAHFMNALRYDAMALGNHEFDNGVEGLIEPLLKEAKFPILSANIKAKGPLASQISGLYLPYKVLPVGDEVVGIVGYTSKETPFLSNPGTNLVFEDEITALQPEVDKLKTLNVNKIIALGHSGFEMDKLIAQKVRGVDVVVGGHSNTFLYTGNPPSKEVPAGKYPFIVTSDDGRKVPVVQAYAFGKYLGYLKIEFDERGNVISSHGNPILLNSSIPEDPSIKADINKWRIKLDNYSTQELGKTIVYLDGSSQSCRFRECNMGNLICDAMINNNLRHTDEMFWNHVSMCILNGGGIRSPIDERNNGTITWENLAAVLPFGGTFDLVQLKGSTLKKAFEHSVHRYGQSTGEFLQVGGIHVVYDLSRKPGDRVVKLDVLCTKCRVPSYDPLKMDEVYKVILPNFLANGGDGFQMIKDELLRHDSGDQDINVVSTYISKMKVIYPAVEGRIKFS

B1: mAb001c (antibody, V domains shown)
VH: QVQLQQSGPELVKPGASVRISCKTSGYTFTNYYIYWVKQRPGQGLEWIGWIYPGNLNIKYNEKFKGKSTLTADKSSSTAFMQLSSLTSEDSAVYFCARDDNYAWFAYWGQGTLVTVSS
VL: DIVMTQSHKFMSTSIGDRVSITCKASQDVSTAVAWYQQKPGQSPKLLIYWTNTRHTGVPDRFTGNTSGTEHTLTISSVQAEDLALYYCQQHYSTPFTFGSGTTLEIK
notes: also called human-mouse chimeric antibody mAb001c
B2: mAb002c (antibody, V domains shown)
VH: QVQLQQPGAELVKPGASVRLSCKASGYTLTSYWMHWVKKRPGQGLEWIGEINPSNGRSNYNEKFKSKATLTVDRSSSTVYMQLGSLTSEDSAVYYCARRGVSGNYFDYWGQGTTLTVSS
VL: DIKMTQSPSSMYASLGERVTMTCKASQDINTYLSWFQQKPGKSPKTLIYRSNILVDGVPSRFSGSRSGQDYYLTITSLEYEDMGIYYCLQYDEFPYTFGGGTKLELK
notes: also called human-mouse chimeric antibody mAb002c
B3: MEDI9447-κ (antibody, V domains shown)
VH: EVQLLESGGGLVQPGGSLRLSCAASGFTFSSYAYSWVRQAPGKGLEWVSAISGSGGRTYYADSVKGRFTISRDNSKNTLYLQMNSLRAEDTAVYYCARLGYGRVDEWGRGTLVTVSS
VL: QSVLTQPPSASGTPGQRVTISCSGSLSNIGRNPVNWYQQLPGTAPKLLIYLDNLRLSGVPDRFSGSKSGTSASLAISGLQSEDEADYYCATWDDSHPGWTFGGGTKLTVL
B4: mAb004c (antibody, V domains shown)
VH: EVQLQQSGPELVKPGASVKIPCKASGYTFTDYNMDWVKQSHGKSLEWIGDINPNNGGSVYNQKFKGKATLTVDKSSSTAYMELRSLTSEDTAVYYCGRITGTGYWSFDVWGTGTTVTVSP
VL: DIQMTQSPASLSVSVGETVTITCRASENIYSNLAWYQQKQGKSPQLLVYGATNLAEGVPSRFSGSGLGTQYSLKISSLQSEDFGSYYCQHFWGIPWTFGGGTKLEIK
notes: also called human-mouse chimeric antibody mAb004c
B5: mAb001 (antibody, IgG1, V domains shown)
VH: B1 VH
VL: B1 VL
B6: mAb001c-VK-SGS (antibody, V domains shown)
VH: B1 VH
VL: B1 VL with N65S, T66G
B7: mAb002c-VH-QG/VK-SG (antibody, V domains shown)
VH: B2 VH with N55Q
VL: B2 VL with D56S
B8: mAb002 (antibody, IgG1, V domains shown)
VH: B2 VH
VL: B2 VL
B9: mAb004 (antibody, IgG2b, V domains shown)
VH: B4 VH
VL: B4 VL

Columns and labels:
[1] = target: T1, extracellular domain of human CD73 …; assay: ELISA, coated CD73-ECD
[2] = target: T1, extracellular domain of human CD73 …; assay: cell-based or functional assay
[3] = target: T2, CD73 on the surface of human tumor cells; assay: FACS, NCI-H1299 cells
Experimental: Alternatively, 100 μL of mAb001c, mAb002c, mAb004c diluted in a 3-fold gradient from 100 nM to 0.046 nM were used as primary antibodies and mixed with 1×10⁵ NCI-H1299 cells suspended in 100 μL RPMI-1640 serum-free medium. Then the obtained solutions were incubated at 4° C. for 1 h, the cells were washed twice with PBS to remove unbound primary antibody, and the target cells were incubated with 200 μL PE-labeled secondary antibody (2 μg/mL) at 4° C. for 30 min. The cells were washed twice with PBS to remove unbound secondary antibody. Finally, the cells were resuspended in 200 μL PBS, and the binding affinities of the test antibodies to CD73 on the cell surface were determined by a flow cytometer.
With reference to the methods in Examples 4-8, the ELISA affinity to CD73-ECD protein, the inhibitory activity on recombinant human CD73 enzyme, the binding affinity to tumor cells, and the inhibitory activity on CD73 enzyme of tumor cells of the above prepared MEDI9447-κ as well as the antibodies mAb001c and mAb002c were detected.

[4] = target: T2, CD73 on the surface of human tumor cells; assay: FACS, MDA-MB-231 cells
[5] = target: T2, CD73 on the surface of human tumor cells; assay: cell-based or functional assay
[6] = target: T2, CD73 on the surface of human tumor cells; assay: flow cytometry, NCI-H1299 cells
[7] = target: T2, CD73 on the surface of human tumor cells; assay: flow cytometry, MDA-MB-231 cells
[8] = target: T2, CD73 on the surface of human tumor cells; assay: FACS, 5 µg/mL antibody, CD73-high Calu-1 against CD73-low MDA-MB-453 cells
Experimental: 3×10⁵ tumor cells were mixed well with the antibody (final concentration was 5 μg/mL), and then incubated at 4° C. for 1 h. The cells were washed twice with PBS to remove the unbound primary antibody. Then the target cells were incubated with PE-labeled secondary antibody at 4° C. for 30 minutes. The cells were washed twice with PBS to remove the unbound secondary antibody. Finally, the cells were resuspended in 200 μL PBS and the binding rate was detected with a Fluorescence Activated Cell Sorter (FACS).
The chimeric antibody could specifically recognize and bind tumor cells with CD73 high expression.

[9] = target: T2, CD73 on the surface of human tumor cells; assay: cell-based or functional assay; remark: listed apart in the source
[10] = target: T2, CD73 on the surface of human tumor cells; assay: FACS, purified antibody serial dilution, MDA-MB-231 cells

| Binder | EC50 [1] | IC50, inhibition of AMP hydrolysis by recombinant human CD73 (CellTiter-Glo) [2] | EC50 [3] | EC50 [4] | Calu-1 CD73 Enzyme Inhibition IC50 [5] | MDA-MB-231 CD73 Enzyme Inhibition IC50 [5] | NCI-H1299 CD73 Enzyme Inhibition IC50 [5] | EC50 [6] | EC50 [7] | difference in binding rate (MFI), Calu-1 against MDA-MB-453 [8] | EC50 [10] | also measured |
| --- | --- | --- | --- | --- | --- | --- | --- | --- | --- | --- | --- | --- |
| B1 | 0.024 nM | 0.025 nM | 1.03 nM | 0.712 nM | 0.506 nM | 1.86 nM | 0.236 nM | 1 nM | 0.7 nM | 250 times | – | – |
| B2 | 0.016 nM | 0.031 nM | 0.391 nM | 0.356 nM | 0.281 nM | 0.791 nM | 0.191 nM | 0.39 nM | 0.36 nM | 978 times | – | – |
| B3 | – | – | 1.27 nM | 0.752 nM | 0.527 nM | 1.1 nM | 0.388 nM | – | – | – | – | – |
| B4 | 0.038 nM | 0.039 nM | – | – | – | – | – | 2.2 nM | 2.5 nM | 856 times | – | IC50, inhibition of CD73 enzyme on Calu-1 cells (AMP hydrolysis) [9]: 0.63 nM; IC50, inhibition of CD73 enzyme on MDA-MB-231 cells (AMP hydrolysis) [9]: 4.16 nM; IC50, inhibition of CD73 enzyme on NCI-H1299 cells (AMP hydrolysis) [9]: 0.385 nM |
| B5 | – | – | – | – | – | – | – | – | – | – | 1.24 nM | – |
| B6 | – | – | – | – | – | – | – | – | 1.39 nM | – | – | IC50, inhibition of the catalytic function of recombinant human CD73 (CellTiter-Glo) [2]: 0.02 nM |
| B7 | – | – | – | – | – | – | – | – | – | – | – | IC50, inhibition of the catalytic function of recombinant human CD73 (CellTiter-Glo) [2]: 0.038 nM and 0.06 nM |
| B8 | – | – | – | – | – | – | – | – | – | – | 0.65 nM | – |
| B9 | – | – | – | – | – | – | – | – | – | – | 4.69 nM | – |
